The values that follow come from patent US20190169308A1 (ALLIGATOR BIOSCIENCE, published 2019).

For experiment [1], the target named is T1, mouse 5T4 on transfected cells (mouse, UniProt Q9Z0L0 32-426).
T1 construct: whole, on cells; also called murine 5T4
T1 sequence (looked up): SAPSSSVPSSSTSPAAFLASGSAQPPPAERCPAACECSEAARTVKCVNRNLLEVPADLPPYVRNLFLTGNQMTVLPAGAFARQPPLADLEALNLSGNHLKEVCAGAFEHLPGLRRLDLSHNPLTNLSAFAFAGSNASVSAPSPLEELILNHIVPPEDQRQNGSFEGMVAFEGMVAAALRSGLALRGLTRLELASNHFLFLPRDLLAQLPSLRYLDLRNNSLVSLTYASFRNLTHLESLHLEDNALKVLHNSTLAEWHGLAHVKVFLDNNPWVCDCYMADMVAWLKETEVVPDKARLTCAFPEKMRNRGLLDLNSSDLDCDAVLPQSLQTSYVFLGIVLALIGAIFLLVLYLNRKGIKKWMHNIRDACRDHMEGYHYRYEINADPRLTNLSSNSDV
Kind of experiment: flow cytometry, mouse 5T4-transfected cells. Background: In flow cytometry, cells or beads pass a laser one at a time.

Experiment [2] has as its target T2, human 5T4 on transfected cells (human, UniProt Q13641 32-420).
T2 construct: whole, on cells; also called B16-5T4; CHOh5T4
T2 sequence (looked up): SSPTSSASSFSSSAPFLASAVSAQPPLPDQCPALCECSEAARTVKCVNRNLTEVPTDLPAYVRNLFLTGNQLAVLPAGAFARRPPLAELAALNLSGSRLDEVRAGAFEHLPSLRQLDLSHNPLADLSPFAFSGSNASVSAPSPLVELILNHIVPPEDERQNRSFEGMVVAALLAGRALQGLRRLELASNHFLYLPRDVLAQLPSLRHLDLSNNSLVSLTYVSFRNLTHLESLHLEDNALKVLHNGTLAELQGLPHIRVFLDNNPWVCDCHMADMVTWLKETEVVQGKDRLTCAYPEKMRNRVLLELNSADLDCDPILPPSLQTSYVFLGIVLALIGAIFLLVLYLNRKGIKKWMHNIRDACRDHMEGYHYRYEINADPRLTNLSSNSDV
Kind of experiment: flow cytometry, 5T4-transfected B16 cells.

For experiment [3], the target named is T3, human/mouse 5T4 chimera E1.
T3 construct: on transfected CHO cells
As to the kind of experiment: flow cytometry, cells with human/mouse 5T4 chimera. As for the experimental part:
(§1) Epitope mapping was performed by investigation of loss of binding by the antibodies using a panel of human/mouse chimeric 5T4 constructs by flow cytometry. […] Two strategies were used for the epitope mapping as illustrated in FIG. 5. In one approach, seven human/mouse 5T4 chimeras were constructed based on dividing 5T4 into seven different domains (FIG. 5). By replacing each domain with the corresponding mouse sequence seven human/mouse 7 5T4 human/mouse chimeras were generated. The chimeras were generated using the human protein 5T4 sequence NP_006661.1 (reference mRNA sequence NM_006670.4) and the corresponding mouse sequence NP_035757.2 (reference mRNA sequence NM_011627.4). The human/mouse chimeric DNA constructs, as well as human and mouse wild-type 5T4, were cloned into pcDNA3.1 expression vectors. […] As controls human 5T4 and mouse 5T4-transfected cells were used. For flow cytometric analysis, cells were stained with different 5T4 antibodies diluted in FACS buffer (PBS, 0.5% BSA). […] Samples were analysed by FACSverse (BD Biosciences, Heidelberg, Germany) and % positive cells were determined. To compensate for variations in % 5T4 positive cells in the various transfected populations, binding levels were normalized within each chimera by dividing % positive cells for each clone with % positive cells for the clones resulting in the highest % positive cells (% pos cellscloneX/% positive cellsₘₐₓ). A normalized value ≤0.75 was defined as mAb binding being dependent on the replaced region, whereas a normalized value ≤0.25 was defined as complete dependence.

The target of experiment [4] is T4, human/mouse 5T4 chimera E2.
T4 construct: on transfected CHO cells
Kind of experiment: flow cytometry, cells with human/mouse 5T4 chimera. As for the experimental part:
as §1

The target in experiment [5] is T5, human/mouse 5T4 chimera E3.
T5 construct: on transfected CHO cells
As to the kind of experiment: flow cytometry, cells with human/mouse 5T4 chimera. As for the experimental part: as §1

For experiment [6], the target named is T6, human/mouse 5T4 chimera E4.
T6 construct: on transfected CHO cells
Kind of experiment: flow cytometry, cells with human/mouse 5T4 chimera. As for the experimental part:
as §1

In experiment [7] the target is T7, human/mouse 5T4 chimera E5.
T7 construct: on transfected CHO cells
Kind of experiment: flow cytometry, cells with human/mouse 5T4 chimera. The method, then:
as §1

For experiment [8], the target named is T8, human/mouse 5T4 chimera E6.
T8 construct: on transfected CHO cells
Kind of experiment: flow cytometry, cells with human/mouse 5T4 chimera. The method, then: as §1

Experiment [9] deals with T9, human/mouse 5T4 chimera E7.
T9 construct: on transfected CHO cells
As to the kind of experiment: flow cytometry, cells with human/mouse 5T4 chimera. The method, then: as §1

Experiment [10] deals with T10, 5T4 (SPR antigen) (UniProt Q13641 32-355, limits assumed, biotinylated on the MASS-1 platform).
T10 construct: also called biotinylated 5T4
T10 sequence (looked up): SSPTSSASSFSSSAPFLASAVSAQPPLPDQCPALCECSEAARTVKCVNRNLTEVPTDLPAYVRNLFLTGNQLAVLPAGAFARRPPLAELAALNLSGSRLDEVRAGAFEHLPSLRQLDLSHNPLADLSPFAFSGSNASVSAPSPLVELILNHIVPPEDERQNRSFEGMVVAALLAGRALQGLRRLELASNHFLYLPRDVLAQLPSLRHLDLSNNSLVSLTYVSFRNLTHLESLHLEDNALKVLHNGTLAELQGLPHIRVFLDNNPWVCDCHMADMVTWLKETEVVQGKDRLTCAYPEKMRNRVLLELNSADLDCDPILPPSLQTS
As to the kind of experiment: SPR MASS-1, biotinylated antigen on streptavidin chip, parental mAb.

In experiment [11] the target is T10, 5T4 (SPR antigen). As to the kind of experiment: SPR MASS-1, biotinylated 5T4 on streptavidin chip, mAb injected (bivalent). The method, then: Binding kinetics of the 5T4-specific mAbs have been studied using two different SPR-based platforms, the Biacore 3000 (GE Healthcare) and the MASS-1 platform (Sierra Sensors). Briefly, 5T4 was captured at the sensor chip surface either via direct amine coupling (Biacore platform) or using a streptavidin coated chip and biotinylated 5T4 (MASS-1 platform). The different 5T4-specific mAbs were then injected over the chip in increasing concentrations and the association and dissociation rates studied in real time. A 1:1 Langmuir model was used for curve fitting.

B1: 1210/1211 (antibody, V domains shown)
VH: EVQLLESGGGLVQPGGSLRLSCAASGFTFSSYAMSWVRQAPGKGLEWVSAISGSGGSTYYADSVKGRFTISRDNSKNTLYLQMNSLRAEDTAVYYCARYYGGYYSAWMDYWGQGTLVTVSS
VL: DIQMTQSPSSLSASVGDRVTITCRASQSISSYLNWYQQKPGKAPKLLIYAASSLQSGVPSRFSGSGSGTDFTLTISSLQPEDFATYYCQQTYGYLHTFGQGTKLEIK
For B1, the binding result in [1] is “no binding”. Moreover, in experiment [2], the EC50 was found to be 0.8 nM. Also, the “normalized % positive cells” value in experiment [3] came out at 0.99; in experiment [4], 0.02; in [5] it was 0.9; in experiment [6], 0.69; in experiment [7], 0.89; in [8] it was 0.89. In addition, in [9], the “normalized % positive cells” value amounted to 0.96. In addition, the dissociation constant (Kd) with 5T4 (SPR antigen) [10] was 0.437 nM. This molecule gave a koff in the experiment with 5T4 (SPR antigen) [11] of 0.00019 s⁻¹. This molecule showed a kon in the experiment with 5T4 (SPR antigen) [11] of 510000 M⁻¹ s⁻¹.

B2: 1206/1207 (antibody, V domains shown)
VH: EVQLLESGGGLVQPGGSLRLSCAASGFTFSGSSMSWVRQAPGKGLEWVSSIYYSGSGTYYADSVKGRFTISRDNSKNTLYLQMNSLRAEDTAVYYCARYGRNVHPYNLDYWGQGTLVTVSS
VL: DIQMTQSPSSLSASVGDRVTITCRASQSISSYLNWYQQKPGKAPKLLIYAASSLQSGVPSRFSGSGSGTDFTLTISSLQPEDFATYYCQQGYYYLPTFGQGTKLEIK
Turning to B2, in experiment [1], the binding result is on record as “no binding”. In experiment [2], the EC50 was 1.8 nM. In addition, the “normalized % positive cells” value stood at 0.96 in [3]; 0.74 in experiment [4]; 0.25 in experiment [5]; 0.52 in [6]; 0.9 in [7]; 0.94 in experiment [8]. Also, the “normalized % positive cells” value in experiment [9] turned out to be 0.94. This molecule had a koff in the experiment with 5T4 (SPR antigen) [11] of 0.00013 s⁻¹. The kon in the experiment with 5T4 (SPR antigen) [11] was found to be 1.4e+06 M⁻¹ s⁻¹.

The EC50 is the midpoint of the concentration-response curve. A higher EC50 goes with a less potent agent. Broadly, the Kd is the free concentration of one partner at which half of the binding sites on the other are occupied at equilibrium, for simple one-to-one binding. A word on the koff: it is the first-order rate constant of dissociation. The term kon denotes the rate constant with which the complex forms. A lower kon goes with slow association.
